Data published in patent US20110165605A1.

T1: α-lactalbumin (Sigma Co.)
T1 sequence (P00711 20-142, species assumed, looked up): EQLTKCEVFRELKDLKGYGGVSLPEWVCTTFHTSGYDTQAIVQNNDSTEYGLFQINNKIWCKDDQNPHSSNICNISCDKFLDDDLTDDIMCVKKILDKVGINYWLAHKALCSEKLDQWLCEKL


Assays:
[1] = target: T1, α-lactalbumin (Sigma Co.)
[2] = target: separated soybean protein (Fuji Pro F, FUJI OIL CO., LTD.)
[3] = target: β-lactoglobulin (Sigma Co.)
[4] = target: wheat gluten (Viten, ROQUETTE Co.)
[5] = target: casein (Wako Pure Chemical Industries, Ltd.)
[6] = target: wheat gluten (Viten, ROQUETTE Co.); test: cell-based or functional assay
[7] = target: casein (Wako Pure Chemical Industries, Ltd.); test: cell-based or functional assay
[8] = target: separated soybean protein (Fuji Pro F, FUJI OIL CO., LTD.); test: cell-based or functional assay

| Ratio (Y82S/Wild-type) [6] | Ratio (Y82S/Wild-type) [7] | Ratio (Y82S/Wild-type) [8] | Binder | Relative activity (%) [1] [%] | Relative activity (%) [2] [%] | Relative activity (%) [3] [%] | Relative activity (%) [4] [%] | Relative activity (%) [5] [%] | Ratio (Y82S/Wild-type) [1] | Ratio (Y82S/Wild-type) [3] |
| --- | --- | --- | --- | --- | --- | --- | --- | --- | --- | --- |
|  |  |  | mature form of wild-type protein-glutaminase derived from the Chryseobacterium proteolyticum 9670 strain (protein) LASVIPDVATLNSLFNQIKNQSCGTSTASSPCITFRYPVDGCYARAHKMRQILMNNGYDCEKQFVYGNLKASTGTCCVAWSYHVAILVSYKNASGVTEKRIIDPSLFSSGPVTDTAWRNACVNTSCGSASVSSYANTAGNVYYRSPSNSYLYDNNLINTNCVLTKFSLLSGCSPSPAPDVSSCGF | 100 | 127 | 61 | 2620 | 1020 |  |  |
| 1.6 | 0.7 | 4.2 | mature form of the protein-glutaminase mutant Tyr82Ser (protein) LASVIPDVATLNSLFNQIKNQSCGTSTASSPCITFRYPVDGCYARAHKMRQILMNNGYDCEKQFVYGNLKASTGTCCVAWSSHVAILVSYKNASGVTEKRIIDPSLFSSGPVTDTAWRNACVNTSCGSASVSSYANTAGNVYYRSPSNSYLYDNNLINTNCVLTKFSLLSGCSPSPAPDVSSCGF | 100 | 531 | 309 | 4270 | 701 | 1 | 5 |
